For the assay, the target named is T1, Recombinant GST-IRTKS (mouse, UniProt Q9DBJ3 1-514).
T1 construct: IRTKS, cloned from a murine bone marrow library, subcloned into pGEX-6p-1; also called recombinant IRTKS; source: E. coli (pGEX-6p-1), recombinant
T1 sequence (looked up): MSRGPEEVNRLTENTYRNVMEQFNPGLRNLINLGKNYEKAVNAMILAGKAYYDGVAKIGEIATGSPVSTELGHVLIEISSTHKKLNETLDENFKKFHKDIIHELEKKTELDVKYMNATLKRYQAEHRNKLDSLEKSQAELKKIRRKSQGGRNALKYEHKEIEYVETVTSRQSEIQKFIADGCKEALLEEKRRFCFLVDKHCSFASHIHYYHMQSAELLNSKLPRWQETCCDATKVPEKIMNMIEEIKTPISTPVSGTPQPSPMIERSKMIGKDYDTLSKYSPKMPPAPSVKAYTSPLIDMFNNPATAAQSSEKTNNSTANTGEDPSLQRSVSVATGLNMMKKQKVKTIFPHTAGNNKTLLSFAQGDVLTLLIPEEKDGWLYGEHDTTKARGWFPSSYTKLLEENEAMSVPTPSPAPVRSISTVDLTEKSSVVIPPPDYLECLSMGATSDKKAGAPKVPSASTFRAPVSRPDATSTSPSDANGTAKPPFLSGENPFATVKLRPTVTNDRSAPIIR
The experiment in a line: pull-down; GST pull-down: recombinant GST-tagged IRTKS or its truncations incubated with the recombinant partner. Conditions: both partners purified.

B1: Recombinant PCBP2 (natural protein, mouse, UniProt Q61990 1-362, looked up)
chain: MDTGVIEGGLNVTLTIRLLMHGKEVGSIIGKKGESVKKMREESGARINISEGNCPERIITLAGPTNAIFKAFAMIIDKLEEDISSSMTNSTAASRPPVTLRLVVPASQCGSLIGKGGCKIKEIRESTGAQVQVAGDMLPNSTERAITIAGIPQSIIECVKQICVVMLESPPKGVTIPYRPKPSSSPVIFAGGQDRYSTGSDSASFPHTTPSMCLNPDLEGPPLEAYTIQGQYAIPQPDLTKLHQLAMQQSHFPMTHGNTGFSGIESSSPEVKGYWAGLDASAQTTSHELTIPNDLIGCIIGRQGAKINEIRQMSGAQIKIANPVEGSTDRQVTITGSAASISLAQYLINVRLSSETGGMGSS
notes: PCBP2, cloned from a murine bone marrow library; source: recombinant (E. coli constructs in pGEX-6p-1 and pET-28a are described)
Consider B1, for which the binding result is “binds”.

The values are drawn from PMC4569712, “IRTKS negatively regulates antiviral immunity through PCBP2 sumoylation-mediated MAVS degradation” (Nature Communications, 2015).
